# From IntAct's records for PubMed 26031419
# B1: Glucocorticoid receptor (Homo sapiens), P04150-1 (parent)
# chain: MDSKESLTPGREENPSSVLAQERGDVMDFYKTLRGGATVKVSASSPSLAVASQSDSKQRRLLVDFPKGSVSNAQQPDLSKAVSLSMGLYMGETETKVMGNDLGFPQQGQISLSSGETDLKLLEESIANLNRSTSVPENPKSSASTAVSAAPTEKEFPKTHSDVSSEQQHLKGQTGTNGGNVKLYTTDQSTFDILQDLEFSSGSPGKETNESPWRSDLLIDENCLLSPLAGEDDSFLLEGNSNEDCKPLILPDTKPKIKDNGDLVLSSPSNVTLPQVKTEKEDFIELCTPGVIKQEKLGTVYCQASFPGANIIGNKMSAISVHGVSTSGGQMYHYDMNTASLSQQQDQKPIFNVIPPIPVGSENWNRCQGSGDDNLTSLGTLNFPGRTVFSNGYSSPSMRPDVSSPPSSSSTATTGPPPKLCLVCSDEASGCHYGVLTCGSCKVFFKRAVEGQHNYLCAGRNDCIIDKIRRKNCPACRYRKCLQAGMNLEARKTKKKIKGIQQATTGVSQETSENPGNKTIVPATLPQLTPTLVSLLEVIEPEVLYAGYDSSVPDSTWRIMTTLNMLGGRQVIAAVKWAKAIPGFRNLHLDDQMTLLQYSWMFLMAFALGWRSYRQSSANLLCFAPDLIINEQRMTLPCMYDQCKHMLYVSSELHRLQVSYEEYLCMKTLLLLSSVPKDGLKSQELFDEIRMTYIKELGKAIVKREGNSSQNWQRFYQLTKLLDSMHEVVENLLNYCFQTFLDKTMSIEFPEMLAEIITNQIPKYSNGNIKKLLFHQK
# Variants of: B1
# Details: with ncoa2_mouse Ncoa2, Q61026
# Chain of ncoa2_mouse Ncoa2, Q61026 (Q61026 whole entry): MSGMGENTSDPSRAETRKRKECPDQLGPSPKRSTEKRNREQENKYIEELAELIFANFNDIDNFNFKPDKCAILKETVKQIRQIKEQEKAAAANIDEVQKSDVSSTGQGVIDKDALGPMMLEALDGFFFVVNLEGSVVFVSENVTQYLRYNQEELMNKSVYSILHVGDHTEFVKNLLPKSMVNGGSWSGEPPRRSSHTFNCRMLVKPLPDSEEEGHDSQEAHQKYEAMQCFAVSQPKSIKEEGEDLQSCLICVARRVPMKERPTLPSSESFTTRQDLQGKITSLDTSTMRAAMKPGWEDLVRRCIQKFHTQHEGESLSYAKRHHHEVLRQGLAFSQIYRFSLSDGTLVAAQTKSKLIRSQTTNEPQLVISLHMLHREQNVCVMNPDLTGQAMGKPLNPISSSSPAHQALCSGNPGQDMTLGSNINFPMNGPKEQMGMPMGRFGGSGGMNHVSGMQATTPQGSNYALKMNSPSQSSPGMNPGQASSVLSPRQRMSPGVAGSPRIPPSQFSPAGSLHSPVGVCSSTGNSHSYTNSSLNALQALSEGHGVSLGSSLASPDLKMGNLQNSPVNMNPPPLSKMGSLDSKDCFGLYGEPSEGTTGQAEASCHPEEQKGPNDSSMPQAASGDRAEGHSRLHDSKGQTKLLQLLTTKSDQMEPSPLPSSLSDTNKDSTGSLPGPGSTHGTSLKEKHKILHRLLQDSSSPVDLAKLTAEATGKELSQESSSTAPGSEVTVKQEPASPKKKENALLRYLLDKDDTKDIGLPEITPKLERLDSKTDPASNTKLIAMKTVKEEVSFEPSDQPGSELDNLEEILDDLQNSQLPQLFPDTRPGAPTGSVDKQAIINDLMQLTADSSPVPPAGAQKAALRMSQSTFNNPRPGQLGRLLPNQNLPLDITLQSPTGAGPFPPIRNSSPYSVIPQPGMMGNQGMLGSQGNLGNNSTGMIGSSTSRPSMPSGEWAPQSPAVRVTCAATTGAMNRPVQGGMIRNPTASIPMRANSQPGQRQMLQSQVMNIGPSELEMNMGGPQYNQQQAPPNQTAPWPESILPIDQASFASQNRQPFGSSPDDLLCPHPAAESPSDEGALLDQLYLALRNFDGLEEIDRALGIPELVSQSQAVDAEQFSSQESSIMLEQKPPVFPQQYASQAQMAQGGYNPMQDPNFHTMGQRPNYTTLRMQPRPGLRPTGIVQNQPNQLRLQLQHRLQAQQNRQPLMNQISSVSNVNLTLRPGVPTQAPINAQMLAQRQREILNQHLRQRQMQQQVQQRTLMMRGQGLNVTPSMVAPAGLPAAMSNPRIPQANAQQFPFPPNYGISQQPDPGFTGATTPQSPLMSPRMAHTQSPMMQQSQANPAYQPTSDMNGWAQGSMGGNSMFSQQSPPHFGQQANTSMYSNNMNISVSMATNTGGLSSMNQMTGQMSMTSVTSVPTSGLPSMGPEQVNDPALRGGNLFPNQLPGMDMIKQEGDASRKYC
row,effect of a mutation on the interaction,Variant
1,with no effect,H726R

# Variants of: B1
# Details: with ncoa2_mouse Ncoa2, Q61026
# Remark: another data set of the same source
row,effect of a mutation on the interaction,Variant
1,decreasing interaction strength,H726R
